Test results: PMC12865133, “Macrocyclic Molecular Glues for the 14‐3‐3/ChREBP Interaction: Affinity and Cooperativity in an Inverse Relationship” (Angewandte Chemie (International Ed. in English), 2025)
Several values for one entry are separate records, joined by “and”; a condition that tells them apart may be missing. Equal values may be shown once. Bridges are numbered along the chain shown (N, C = ends). Where no end group is shown, it is not given here. [ ]: non-standard residue; d: D form. Phe(4-NO2) = N[C@@H](Cc1ccc([N+](=O)[O-])cc1)C(=O)O; pT = C[C@@H](OP(=O)(O)O)[C@H](N)C(=O)O; pS = N[C@@H](COP(=O)(O)O)C(=O)O; azidoPhe = azido phenylalanine; β3hS = N[C@@H](CO)CC(=O)O; βAla = NCCC(=O)O

Legend:
Conditions in all cases: both partners purified
[1] = target: T1, full-length human 14-3-3β protein with a N-terminal His6 tag (human, UniProt P31946 1-246); experiment: fluorescence polarisation; 2D fluorescence anisotropy titration, replicate 1: 14-3-3β titrated (from 250 µM) to FITC-labeled macrocycle or pepD with varying ChREBP peptide starting at 20 μM; KD I (binary affinity of the macrocycle for a site of the 14-3-3 dimer) fitted by the thermodynamic cooperativity model with KD II fixed at 1.5 µM; 10 mM HEPES pH 7.4, 150 mM NaCl, 0.1% Tween20, 0.1% BSA; room temperature
T1 construct: 14-3-3 protein beta/alpha, human, full length; Treated as a dimer in the thermodynamic model (Pp = 14-3-3 dimer); also called Pp (14-3-3 dimer); source: E. coli BL21(DE3), pPROEX HTb, purified (Ni-NTA, dialysis)
T1 sequence (looked up): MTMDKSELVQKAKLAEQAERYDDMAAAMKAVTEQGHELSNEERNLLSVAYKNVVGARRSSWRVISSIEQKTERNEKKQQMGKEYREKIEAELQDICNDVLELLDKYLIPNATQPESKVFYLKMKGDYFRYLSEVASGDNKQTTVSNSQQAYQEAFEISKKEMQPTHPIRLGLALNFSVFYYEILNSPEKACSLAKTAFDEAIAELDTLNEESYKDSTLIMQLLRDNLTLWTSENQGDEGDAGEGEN

[2] = target: T1, full-length human 14-3-3β protein with …; experiment: fluorescence polarisation; 2D fluorescence anisotropy titration, replicate 2: 14-3-3β titrated (from 250 µM) to FITC-labeled macrocycle or pepD with varying ChREBP peptide starting at 10 μM; KD I (binary affinity of the macrocycle for a site of the 14-3-3 dimer) fitted by the thermodynamic cooperativity model with KD II fixed at 1.5 µM; 10 mM HEPES pH 7.4, 150 mM NaCl, 0.1% Tween20, 0.1% BSA; room temperature
14-3-3β = target: T2, 14-3-3β (UniProt P31946 1-246); experiment: fluorescence polarisation; two-dimensional fluorescence anisotropy; 14-3-3β titrated to FITC-labeled F1, F2, F3, F4 or pepD (10 nM) with varying concentrations of ChREBP peptide; fitted to a thermodynamic cooperativity model with KD II fixed at 1.5 µM; n = 2
T2 construct: 14-3-3 protein, beta isoform; also called 14-3-3 protein
T2 sequence (looked up): T1 sequence (looked up)

14-3-3γ = target: T3, 14-3-3γ (UniProt P61981 1-247); experiment: fluorescence polarisation; fluorescence anisotropy; 14-3-3γ titrated to FITC-labeled macrocycles F1-F4 and pepD (10 nM); mean ± SD, n = 3
T3 construct: 14-3-3 protein, gamma isoform; also called 14-3-3 protein
T3 sequence (looked up): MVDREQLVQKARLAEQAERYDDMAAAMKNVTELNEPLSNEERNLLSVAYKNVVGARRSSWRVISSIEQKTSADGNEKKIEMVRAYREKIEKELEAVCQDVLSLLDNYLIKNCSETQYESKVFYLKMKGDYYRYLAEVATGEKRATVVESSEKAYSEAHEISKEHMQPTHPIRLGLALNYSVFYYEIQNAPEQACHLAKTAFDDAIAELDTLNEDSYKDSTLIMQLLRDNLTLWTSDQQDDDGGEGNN

[3] = target: T1, full-length human 14-3-3β protein with …; experiment: fluorescence polarisation; selectivity assay by fluorescence anisotropy: acetylated 14-3-3 client peptides titrated (from 100 μM, 2-fold) to 10 nM FITC-labeled macrocycle F2 or F4 bound to 14-3-3β (7 μM for 2, 2 μM for 4); 10 mM HEPES pH 7.4, 150 mM NaCl, 0.1% Tween20, 0.1% BSA; room temperature
[4] = target: T4, full-length human 14-3-3γ protein with a N-terminal His6 tag (human, UniProt P61981 1-247); experiment: ITC; 200 μM macrocycle or pepD titrated to 20 μM 14-3-3γ; 25 mM HEPES pH 8.0, 100 mM NaCl, 10 mM MgCl2, 500 µM TCEP; 25 °C; fitted with SEDPHAT; mean ± SD, n=3
T4 construct: 14-3-3 protein gamma, human, full length; TEV cleavage of the His6 tag is told only for the 14-3-3σ ΔC construct; source: E. coli BL21(DE3), pPROEX HTb, purified (Ni-NTA, dialysis)
T4 sequence (looked up): T3 sequence (looked up)

[5] = target: T5, recombinant 14-3-3γ-Twinstrep protein (human, UniProt P61981 1-247); experiment: SPR; affinity fit (steady-state response against concentration, 1:1 model); Twinstrep-tagged 14-3-3γ captured on a Strep-Tactin XT chip, 2-fold dilutions of Ac-macrocycle or pepD injected; 25 °C; 10 mM HEPES pH 7.4, 200 mM NaCl, 50 μM EDTA, 0.005% P20; two replicates and their average
T5 construct: 14-3-3 protein gamma; The expression of the Twinstrep construct is not described; also called Twinstrep-tagged 14-3-3γ; source: recombinant
T5 sequence (looked up): T3 sequence (looked up)

[6] = target: T5, recombinant 14-3-3γ-Twinstrep protein; experiment: SPR; kinetic fit (1:1 model, global); Twinstrep-tagged 14-3-3γ captured on a Strep-Tactin XT chip (about 1000 RU), 2-fold dilutions of Ac-macrocycle or pepD injected; multi-cycle; 25 °C; 10 mM HEPES pH 7.4, 200 mM NaCl, 50 μM EDTA, 0.005% P20; two replicates and their average

B1: fluorescently labeled macrocycle F3 (peptide)
chain: SFSXFKXK
modifications: not fully specified; phosphoserine; Phe(+1) triazole cyclised to the backbone amide nitrogen of Lys(+5) through a linker x = 3 (from 4-pentyn-1-ol); β-homoSer(+2); β-Ala(+3); Nph(+4); β-Ala and a lysine whose side chain carries fluorescein isothiocyanate (FITC) after Lys(+5)
- Kd [1]: 630 nM
- Kd [2]: 380 nM

B2: macrocycle F1 (peptide)
chain: SFSXFKXK
modifications: not fully specified; fluorescein isothiocyanate (FITC) on the side chain of the first lysine; β-alanine after it; phosphoserine; triazole from azido phenylalanine (replacing Nph(+1)) cyclised to the backbone amide nitrogen between Lys(+5) and Nph(+4), linker x = 1; β-homoSer(+2); β-Ala(+3); 4-nitrophenylalanine Nph(+4)
- Kd (14-3-3β): 72000 ± 1400 nM
- Kd (14-3-3γ): 57000 nM

Binder: [pS][Phe(4-NO2)][β3hS][βAla][Phe(4-NO2)]K (also: FITC label, site not given here) [FITC-labeled pepD]
- Kd [1]: 8900 nM
- Kd [2]: 7500 nM

B3: ERRγ client peptide (peptide)
peptide: Ac-KRRRK[pS]CQA-NH2
SMILES: CC(=O)N[C@@H](CCCCN)C(=O)N[C@@H](CCCNC(=N)N)C(=O)N[C@@H](CCCNC(=N)N)C(=O)N[C@@H](CCCNC(=N)N)C(=O)N[C@@H](CCCCN)C(=O)N[C@@H](COP(=O)(O)O)C(=O)N[C@@H](CS)C(=O)N[C@@H](CCC(N)=O)C(=O)N[C@@H](C)C(N)=O
notes: ERRγ (estrogen-related receptor gamma), 14-3-3 client peptide; source: synthetic peptide, bought: GenScript Biotech Corp
- binding result [3]: binds

B4: macrocycle 4 (peptide)
chain: SFSXFK
modifications: not fully specified; phosphoserine (position 0); phenylalanine(+1) with a triazole (from azido phenylalanine, replacing Nph(+1)) cyclised to the backbone amide nitrogen of Lys(+5) through an alkyl linker x = 4 (from 5-hexyn-1-ol); β-homoSer(+2); β-Ala(+3); 4-nitrophenylalanine Nph(+4); Ac- (Ac-macrocycles)
- Kd [4]: 1050 nM
- Kd [5]: 1180 nM and 1130 nM and 1200 nM
- Kd [6]: 1140 nM and 1030 nM and 1100 nM

B5: macrocycle F2 (peptide)
chain: SFSXFKXK
modifications: not fully specified; fluorescein isothiocyanate (FITC) on the side chain of the first lysine; β-alanine after it; phosphoserine; triazole from azido phenylalanine (replacing Nph(+1)) cyclised to the backbone amide nitrogen between Lys(+5) and Nph(+4), linker x = 2; β-homoSer(+2); β-Ala(+3); 4-nitrophenylalanine Nph(+4)
- Kd (14-3-3γ): 5700 nM

B6: ERα client peptide (peptide)
peptide: Ac-EGFPA[pT]V-OH
SMILES: CC(=O)N[C@@H](CCC(=O)O)C(=O)NCC(=O)N[C@@H](Cc1ccccc1)C(=O)N1CCC[C@H]1C(=O)N[C@@H](C)C(=O)N[C@H](C(=O)N[C@H](C(=O)O)C(C)C)[C@@H](C)OP(=O)(O)O
notes: ERα (estrogen receptor alpha), 14-3-3 client peptide; source: synthetic peptide, bought: GenScript Biotech Corp
- binding result [3]: binds

B7: TAZ client peptide (peptide)
peptide: Ac-HVRSH[pS]SPASLQLG
notes: TAZ, 14-3-3 client peptide; No C-terminal group is printed for this peptide; source: synthetic peptide, bought: GenScript Biotech Corp
- binding result [3]: binds

B8: fluorescently labeled macrocycle F1 (peptide)
chain: SFSXFKXK
modifications: not fully specified; phosphoserine; Phe(+1) triazole cyclised to the backbone amide nitrogen of Lys(+5) through a linker x = 1 (from propargyl alcohol); β-homoSer(+2); β-Ala(+3); Nph(+4); β-Ala and a lysine whose side chain carries fluorescein isothiocyanate (FITC) after Lys(+5)
- Kd [1]: 71000 nM
- Kd [2]: 73000 nM

B9: USP8 client peptide (peptide)
peptide: Ac-KLKRSY[pS]SPDITQ-NH2
SMILES: CC[C@H](C)[C@H](NC(=O)[C@H](CC(=O)O)NC(=O)[C@@H]1CCCN1C(=O)[C@H](CO)NC(=O)[C@H](COP(=O)(O)O)NC(=O)[C@H](Cc1ccc(O)cc1)NC(=O)[C@H](CO)NC(=O)[C@H](CCCNC(=N)N)NC(=O)[C@H](CCCCN)NC(=O)[C@H](CC(C)C)NC(=O)[C@H](CCCCN)NC(C)=O)C(=O)N[C@H](C(=O)N[C@@H](CCC(N)=O)C(N)=O)[C@@H](C)O
notes: USP8, 14-3-3 client peptide; source: synthetic peptide, bought: GenScript Biotech Corp
- binding result [3]: binds

B10: acetylated ChREBP peptide (peptide)
peptide: Ac-RDKIRLNNAIWRAWYIQYVKRRKSPV-NH2
notes: also called S (in the model); source: synthetic peptide, bought: GenScript Biotech Corp
- binding result [3]: binds

B11: ExoS client peptide (peptide)
peptide: Ac-QGLLDALDLAS-NH2
notes: ExoS (exoenzyme S), 14-3-3 client peptide; source: synthetic peptide, bought: GenScript Biotech Corp
- binding result [3]: binds

B12: NOTCH4 client peptide (peptide)
peptide: Ac-RPRTQ[pS]APHRRRPP-NH2
SMILES: CC(=O)N[C@@H](CCCNC(=N)N)C(=O)N1CCC[C@H]1C(=O)N[C@@H](CCCNC(=N)N)C(=O)N[C@H](C(=O)N[C@@H](CCC(N)=O)C(=O)N[C@@H](COP(=O)(O)O)C(=O)N[C@@H](C)C(=O)N1CCC[C@H]1C(=O)N[C@@H](Cc1c[nH]cn1)C(=O)N[C@@H](CCCNC(=N)N)C(=O)N[C@@H](CCCNC(=N)N)C(=O)N[C@@H](CCCNC(=N)N)C(=O)N1CCC[C@H]1C(=O)N1CCC[C@H]1C(N)=O)[C@@H](C)O
notes: NOTCH4, 14-3-3 client peptide; source: synthetic peptide, bought: GenScript Biotech Corp
- binding result [3]: binds

B13: fluorescently labeled macrocycle F2 (peptide)
chain: SFSXFKXK
modifications: not fully specified; phosphoserine; Phe(+1) triazole cyclised to the backbone amide nitrogen of Lys(+5) through a linker x = 2 (from 3-butyn-1-ol); β-homoSer(+2); β-Ala(+3); Nph(+4); β-Ala and a lysine whose side chain carries fluorescein isothiocyanate (FITC) after Lys(+5)
- Kd [1]: 12600 nM
- Kd [2]: 11900 nM

B14: macrocycle F3 (peptide)
chain: SFSXFKXK
modifications: not fully specified; fluorescein isothiocyanate (FITC) on the side chain of the first lysine; β-alanine after it; phosphoserine; triazole from azido phenylalanine (replacing Nph(+1)) cyclised to the backbone amide nitrogen between Lys(+5) and Nph(+4), linker x = 3; β-homoSer(+2); β-Ala(+3); 4-nitrophenylalanine Nph(+4)
- Kd (14-3-3γ): 230 nM

B15: macrocycle F4 (peptide)
chain: SFSXFKXK
modifications: not fully specified; fluorescein isothiocyanate (FITC) on the side chain of the first lysine; β-alanine after it; phosphoserine; triazole from azido phenylalanine (replacing Nph(+1)) cyclised to the backbone amide nitrogen between Lys(+5) and Nph(+4), linker x = 4; β-homoSer(+2); β-Ala(+3); 4-nitrophenylalanine Nph(+4)
- Kd (14-3-3γ): 2100 nM

B16: macrocycle 3 (peptide)
chain: Ac-[pS][azidoPhe][β3hS][βAla][Phe(4-NO2)]K
modifications: bridge 2-6; not fully specified (bridges); also: triazole of Phe(+1) (from azido phenylalanine) cyclised to backbone amide nitrogen of Lys(+5)
- Kd [4]: 167 nM
- Kd [5]: 228 nM and 253 nM and 240 nM
- Kd [6]: 220 nM and 233 nM and 230 nM

B17: B-RAF client peptide (peptide)
peptide: Ac-RDRSS[pS]APNVH-NH2
SMILES: CC(=O)N[C@@H](CCCNC(=N)N)C(=O)N[C@@H](CC(=O)O)C(=O)N[C@@H](CCCNC(=N)N)C(=O)N[C@@H](CO)C(=O)N[C@@H](CO)C(=O)N[C@@H](COP(=O)(O)O)C(=O)N[C@@H](C)C(=O)N1CCC[C@H]1C(=O)N[C@@H](CC(N)=O)C(=O)N[C@H](C(=O)N[C@@H](Cc1c[nH]cn1)C(N)=O)C(C)C
notes: B-RAF, 14-3-3 client peptide; source: synthetic peptide, bought: GenScript Biotech Corp
- binding result [3]: binds

B18: fluorescently labeled macrocycle F4 (peptide)
chain: SFSXFKXK
modifications: not fully specified; phosphoserine; Phe(+1) triazole cyclised to the backbone amide nitrogen of Lys(+5) through a linker x = 4 (from 5-hexyn-1-ol); β-homoSer(+2); β-Ala(+3); Nph(+4); β-Ala and a lysine whose side chain carries fluorescein isothiocyanate (FITC) after Lys(+5)
- Kd [1]: 5000 nM
